# Test results: the DeepSol protein solubility set
# Test: soluble on expression in E. coli; label from the status in PepcDB or PDB records
row,Sequence,soluble on expression in E. coli
1,MGSDKIHHHHHHMSEKLWEKGYKVNEEVEKFTVGDDYITDMKIIEYDIKASIVHSRMLHKIGLLSAEEQKKIEEALSELLNLVKEGKFQIKPEEEDCHTAIENFLVKKLGEIGKKIHTARSRNDQVLTALRLMYKEELKEIENLIRELQKSLERFIEKFGDVKFPGYTHTRKAMPTDFATWAGALKDALEDDLKLLKTAYEIVDQSPLGTGAGYGVPIDIDREFTAKELGFSKVQWNPIYTQNSRGKFEYLILHTLSQISYDLNRFASDIIFFSLPEIGYLKLPKELCTGSSIMPHKINPDPLELVRAHHHTIVSKMLMAVTLPSNLIFGYHRDFQLLKKPVIEAFEVVKNIVRIMKIIFDHLEVDKERSESSITEEVLATHRVYELVKQGVPFRDAYRMVAEKYGREKD,not soluble
2,MGSDKIHHHHHHMRYLSKDILEEVITQRPSDSYKSNFGRVVLIGGNRQYGGAIIMSTEACINSGAGLTTVITDVKNHGPLHARCPEAMVVGFEETVLLTNVVEQADVILIGPGLGLDATAQQILKMVLAQHQKQQWLIIDGSAITLFSQGNFSLTYPEKVVFTPHQMEWQRLSHLPIEQQTLANNQRQQAKLGSTIVLKSHRTTIFHAGEPFQNTGGNPGMATGGTGDTLAGIIAGFLAQFKPTIETIAGAVYLHSLIGDDLAKTDYVVLPTKISQALPTYMKKYAQPHTAPDSELLEQKRSR,not soluble
3,MRKNVSDLEYTTWFAPVKPLGVQEGSLLLGVRNSFTKDWFRDHYLELLLAALRSLGAEHPQVEFQVLPAAQDALLLPNDPPPAPEAAAPTPKTKAAPTPPPSTPGDNRKTLNPKYTFENFVVGPNNNLAHAAALAVAESPGKAYNPLFIYGDVGLGKTHLMHAVGHYLAERFPEKRIEYVSTETFTNELINAIRDDKTTQFRNRYRSVDLLLVDDIQFLAGKERTQEEFFHTFNALYESNKQIILSSDRPPKDIQTLEGRLRSRFEWGLITDIQSPEYETRVAILKMNAEQGHITIPQEVLELIARQVTSNIRELEGALMRVVAFASLNNVPFSRAAAAKALSNVFAPQEAKVEMTDVLRQVAAHYGTTPDLIRGSGRARDIVVPRQVAQYLIRALTDHSLPEIGQFFGRDHSTVMHAVSKITEQMGKDPELAATVNTLRNRIQGKEEEEEVGALEHHHHHH,not soluble
4,MKIATYNVRVDTEYDQDWQWSFRKEAVCQLINFHDWSLCCIQEVRPNQVRDLKAYTTFTCLSAEREGDGQGEGLAILYNEQKVQAIDTGYFWLSETPQQPSIHPEAGCPRIALWGLFKETTQNTPFLVINVHLDHISAHARLAGMTVILEELHDKIAQYPTLLMGDFNAESGEEVHQLVQKKFQDSKNLATHYGPRGTFQNFTYTKPWAELEEIDYIYVKGWQVQQTASLTDSIDGRFPSDHFPLEAEVAGENLYFQ,soluble
5,MQGVLAGLPSGIPGIGLEIEGAVQHAPQPGRHSIRCSLKVNHRIDERAQYHLFCTSKSANTTCPKGPSRVLCRDIFDIFDYRNFSMPRANEIKKGMVLNYNGKLLLAKDIDIQSPTARGAATLYKMRFSDVRTGLKVEERFKGDDIVDTVTLTRRYVDFSYVDGNEYVFMDKEDYTPYTFTKDQIEEELLFMPEGGMPDMQVLTWDGQLLALELPQTVDLEIVETAPGIKGASASARNKPATLSTGLVIQVPEYLSPGEKIRIHIEERRYMGRAD,not soluble
6,MSCRKSAPDQCSIWQSEIGVFKMFITMNRLLRLQIMIPELFLYNETHQGLNNQNVHAVGAYFDQHDPEGLQQVVPLLNEAAANQDVVVIDSMASLVDLYTMDSRGLHEICDLATPFFQLLAHPRISMEVKLLINRLKGVLLTRDAAILQLIIQVYENIAEGDQEAEEADERVKALLAERFGNDI,not soluble
7,MGSDKIHHHHHHMPMNRIDRLLGMITLLQAKKFVSAEKIADKFKISKRTVFRDIKAICEQGIPVGSEPNKGYFIVDGYFLPPVLFNNDEANALLLTESLVKGFADKSISKHYSNALDKIKAGLKQVDKDKLEHMQDAIKFQLPERMNNDFEYLSILQVAVSDKKIIYIDYKNNKEEVSKREIEPIGLIFYAFSWHLIGWCHHRKAYRDFKVSRIIQMKNTGVPFKKNKHMPLSEYMKELPVNY,not soluble
8,MSISMDRWQGIQHVVVVGLGITGLSVVNYLRKYHPSVTVQVIDTREAPPGQEQLSSDVALHRSGWNLEWLLNADLVVTNPGIALATPEIQQVLAAGIPVVGDIELFAWHVDTPVIAITGSNGKSTVTDLSGVLANAAGVKAAVGGNIGVPALDLISPDVELYVLELSSFQLETTSSLKLKAAAFLNLSEDHMDRYQGMEDYRQAKLRIFDHAETAVVNADDTQTFPDHAAHLQVVTFGVEQAAQFSLAQHQGREYLFARDEAVMACAELSLVGRHNVANVLTVLALLDSAGVNFRLALDALKSYTGLTHRCQVVADNHGIKWVNDSKATNVASTLAALSGLKIEGQLYLLVGGVGKGADFTPLAPVLATLPVQLCCFGVDGHQFMPLHPSARFYDSMESIIRSIRPQLKSGDMVLLSPACASFDQFKNFMARGDIFAQLARQYA,not soluble
9,MSLSTLQAELASAKTEYEAKELEIRNLFSEKNTQERRLQTLVAQVAAKRKELSNALSQSSAETLTSELQSLESQYQACQTLINNISNYLTVKAGLDKKNASELVERAQKNLLNFIYNSIKSELKVLTDEQVELMKDFVVIEKLIRSELSDSVRQSYFLGCVFDELYGQLKGSDFTSHKEKMLKKYDAESSIG,soluble
10,MGSDKIHHHHHHMMEEYLGVFVDETKEYLQNLNDTLLELEKNPEDMELINEAFRALHTLKGMAGTMGFSSMAKLCHTLENILDKARNSEIKITSDLLDKIFAGVDMITRMVDKIVSEGSDDIGENIDVFSDTIKSFASSGKEKPSEIKNETETKGEEEHKGESTSNEEVVVLPEEVAHVLQEARNKGFKTFYIKVILKEGTQLKSARIYLVFHKLEELKCEVVRTIPSVEEIEEEKFENEVELFVISPVDLEKLSEALSSIADIERVIIKEVTAVTEESGAEKRTEKEEKTEKTEEKAERKKVISQTVRVDIEKLDNLMDLMGELVIARSRILETLKKYNIKELDESLSHLSRITLDLQNVVMKIRMVPISFVFNRFPRMVRDLAKKMNKEVNFIMRGEDTELDRTFVEEIGEPLLHLLRNAIDHGIEPKEERIAKGKPPIGTLILSARHEGNNVVIEVEDDGRGIDKEKIIRKAIEKGLIDESKAATLSDQEILNFLFVPGFSTKEKVSEVSGRGVGMDVVKNVVESLNGSISIESEKDKGTKVTIRLPLTLAIIQALLVKVNNLVYAIPIANIDTILSISKEDIQRVQDRDVIVIRGEVIPVYRLWEVLQIEHKEELEEMEAVIVRVGNRKYGIVVDDLLGQDDIVIKSLGKVFSEVKEFSGAAILGDGSIALIINVSGIV,not soluble
11,MPIVMARDLEETASSSEDEEVISQEDHPCIMWTGGCRRIPVLVFHADAILTKDNNIRVIGERYHLSYKIVRTDSRLVRSILTAHGFHEVHPSSTDYNLMWTGSHLKPFLLRTLSEAQKVNHFPRSYELTRKDRLYKNIIRMQHTHGFKAFHILPQTFLLPAEYAEFCNSYSKDRGPWIVKPVASSRGRGVYLINNPNQISLEDNILVSRYINNPLLIDDFKFDMRLYVLVTSYDPLVIYLYEEGLARKCNWKMGNTMDKRRLPIYVQVL,not soluble
12,MHTQVHTARLVHTADLDSETRQDIRQMVTGAFAGDFTETDWEHTLGGMHALIWHHGAIIAHAAVIQRRLIYRGNALRCGYVEGVAVRADWRGQRLVSALLDAVEQVMRGAYQLGALSSSARARRLYASRGWLPWHGPTSVLAPTGPVRTPDDDGTVFVLPIDISLDTSAELMCDWRAGDVW,soluble
13,MSLEAPVYKEIFGAVKIYELQKVIKMDTETEDVPMFTVQNLPREDIYKTIGEMAIIVPMKNEKLHLVDGVLKAIPHKSPIIIVSNSKRKGPNRFKQEVDLVKHFCNLTHSKVIMIHQRDPGLAEAFRETGYEDILDEKGLVRSGKGEGMLIGIMLAKAIGAKYVGFVDADNYIPGAVNEYVKDYAAGFLMSESEYAMVRLHWRHKPKVSRGTLYFKKWGRVSEITNRYLNQLISEKTAFETTIMVTGNAGEHAMTMKLAEILPFSTGYSIEPYEIVYLLERFGSWENVEEFQDVFDQGIEIFQIETLNPHFHEDKGQEHVKEMVLLSLTTIYHSKLASERLKRQILEDLRMHGIIKEDEEPPKPRVMRPIKDIDIKKWMKTLESNQETLLRFDLEGHHHHHH,soluble
